From publication PMC13391367 (Nature, 2025)
The star is where a group is joined. Biotin = O=C1N[C@H]2[C@H](CS[C@H]2CCCCC(=O)*)N1; fluorescein = fluorescein label

Target: T1, LENG8(283–346) (human, UniProt Q96PV6 283-346)
T1 construct: LENG8, human, residues 283–346 (conserved helical region N-terminal to the SAC3 domain); also called LENG8^283–346 WT; source: recombinant
T1 sequence (looked up): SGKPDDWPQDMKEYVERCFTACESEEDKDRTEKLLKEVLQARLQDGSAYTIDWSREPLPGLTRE
Experiment: pull-down; biotinylated, fluorescein-labelled ZFC3H1 peptide (200 µg) on magnetic streptavidin beads; 15 μg LENG8(283–346) or its F301A mutant added, 60 min at 4 °C; 25 mM HEPES pH 7.9, 100 mM NaCl, 5% glycerol, 1 mM MgCl2, 1 mM TCEP, 0.01% Igepal CA-630; glycine pH 2.5 elution; Coomassie and fluorescein imaging
Conditions: both partners purified

B1: Biotin-ZFC3H1^728–752 wild-type peptide, C-terminal fluorescein (peptide, UniProt O60293 728-752, looked up)
peptide: Biotin-NSVFGGLESMIKEARRTAEQASKPK-fluorescein
notes: ZFC3H1, human, residues 728–752; also called ZFC3H1 peptide WT
  binding result: binds
